Data published in patent publication US7148014 (University of Pennsylvania, dated 2006).

Target: T1, FcγRIIIA α + γ (WT) on transfected COS-1 cells (human; mouse, UniProt P08637 17-254; P20491 19-86)
T1 construct: whole, on cells; also called FcγRIIIA-γγ; FcγRIIIA α and wild type γ
Assay: flow cytometry, COS-1 cells cotransfected with α and γ

T1 sequence (P08637 17-254, chain 1 of 2): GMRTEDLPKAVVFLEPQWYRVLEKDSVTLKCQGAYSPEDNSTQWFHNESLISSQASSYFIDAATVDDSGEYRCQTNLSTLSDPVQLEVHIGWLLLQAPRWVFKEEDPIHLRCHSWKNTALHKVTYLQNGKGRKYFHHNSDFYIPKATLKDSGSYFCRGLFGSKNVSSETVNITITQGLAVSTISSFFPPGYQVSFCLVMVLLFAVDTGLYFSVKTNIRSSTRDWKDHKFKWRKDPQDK
T1 sequence (P20491 19-86, chain 2 of 2): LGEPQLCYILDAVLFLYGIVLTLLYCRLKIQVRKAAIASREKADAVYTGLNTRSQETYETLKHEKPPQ

fold increase of mean fluorescence intensity over IgG isotype control or mock-transfected cells: 15 fold
B1: anti-FcγRIII mAb, 3G8 (antibody)
chain 1: QVTLKESGPGILQPSQTLSLTCSFSGFSLRTSGMGVGWIRQPSGKGLEWLAHIWWDDDKRYNPALKSRLTISKDTSSNQVFLKIASVDTADTATYYCAQINPAWFAYWGQGTLVTVS
chain 2: DIVLTQSPASLAVSLGQRATISCKASQSVDFDGDSFMNWYQQKPGQPPKLLIYTTSNLESGIPARFSASGSGTDFTLNIHPVEEEDTATYYCQQSNEDPYTFGGGTKLELK
